Measurements taken from patent publication US20050164936A1.

Columns and labels:
Assay in all cases: cell-based or functional assay
[1] = biological target: T1, CC chemokine receptor CCR1 (UniProt P32246)
T1 sequence (looked up): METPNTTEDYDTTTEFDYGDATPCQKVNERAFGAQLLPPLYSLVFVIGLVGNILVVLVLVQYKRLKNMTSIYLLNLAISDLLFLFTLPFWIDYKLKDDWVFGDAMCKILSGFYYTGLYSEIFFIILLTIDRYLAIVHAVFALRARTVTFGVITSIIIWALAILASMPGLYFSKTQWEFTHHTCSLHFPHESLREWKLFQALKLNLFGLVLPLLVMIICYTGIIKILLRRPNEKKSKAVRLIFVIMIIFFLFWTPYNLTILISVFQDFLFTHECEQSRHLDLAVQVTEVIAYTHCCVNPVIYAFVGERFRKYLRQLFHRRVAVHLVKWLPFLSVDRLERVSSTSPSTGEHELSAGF

[2] = biological target: CC chemokine receptor CCR5 (human) (UniProt P51681)
Chain of CC chemokine receptor CCR5 (human) (P51681 whole entry): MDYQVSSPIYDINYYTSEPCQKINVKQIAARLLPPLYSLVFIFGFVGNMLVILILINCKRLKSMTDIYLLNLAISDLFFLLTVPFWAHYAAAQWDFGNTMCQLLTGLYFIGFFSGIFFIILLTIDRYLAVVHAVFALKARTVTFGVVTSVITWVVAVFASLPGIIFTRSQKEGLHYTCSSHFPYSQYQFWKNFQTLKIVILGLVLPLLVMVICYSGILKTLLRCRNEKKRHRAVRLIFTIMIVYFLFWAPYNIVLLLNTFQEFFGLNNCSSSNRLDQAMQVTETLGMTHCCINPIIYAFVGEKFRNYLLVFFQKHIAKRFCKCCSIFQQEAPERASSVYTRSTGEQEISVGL

[3] = biological target: T2, CC chemokine receptor CCR3 (UniProt P51677)
T2 sequence (looked up): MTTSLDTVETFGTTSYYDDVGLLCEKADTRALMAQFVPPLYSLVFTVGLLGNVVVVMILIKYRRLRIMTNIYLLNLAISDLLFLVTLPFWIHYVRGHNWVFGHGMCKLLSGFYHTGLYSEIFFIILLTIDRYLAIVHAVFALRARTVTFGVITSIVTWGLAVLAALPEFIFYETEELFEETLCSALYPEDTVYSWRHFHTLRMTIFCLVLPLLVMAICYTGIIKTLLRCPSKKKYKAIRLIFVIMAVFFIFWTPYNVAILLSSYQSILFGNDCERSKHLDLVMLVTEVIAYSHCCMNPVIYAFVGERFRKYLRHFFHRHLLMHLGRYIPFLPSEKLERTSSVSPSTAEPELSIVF

RANTES(1-68) (human) = RANTES(1-68) (human) (UniProt P13501)
Chain of RANTES(1-68) (human) (P13501 24-91 limits assumed): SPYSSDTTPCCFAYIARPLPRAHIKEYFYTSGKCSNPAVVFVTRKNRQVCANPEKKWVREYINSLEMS

Chain of RANTES(3-68) (P13501 26-91 limits assumed): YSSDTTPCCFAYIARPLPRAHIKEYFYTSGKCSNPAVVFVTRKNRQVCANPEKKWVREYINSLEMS
Chain of RANTES(1-68) (P13501 24-91 limits assumed): as the sequence (P13501 24-91 limits assumed) above
Chain of soluble CD26 (sCD26) (P27487 39-766 limits assumed): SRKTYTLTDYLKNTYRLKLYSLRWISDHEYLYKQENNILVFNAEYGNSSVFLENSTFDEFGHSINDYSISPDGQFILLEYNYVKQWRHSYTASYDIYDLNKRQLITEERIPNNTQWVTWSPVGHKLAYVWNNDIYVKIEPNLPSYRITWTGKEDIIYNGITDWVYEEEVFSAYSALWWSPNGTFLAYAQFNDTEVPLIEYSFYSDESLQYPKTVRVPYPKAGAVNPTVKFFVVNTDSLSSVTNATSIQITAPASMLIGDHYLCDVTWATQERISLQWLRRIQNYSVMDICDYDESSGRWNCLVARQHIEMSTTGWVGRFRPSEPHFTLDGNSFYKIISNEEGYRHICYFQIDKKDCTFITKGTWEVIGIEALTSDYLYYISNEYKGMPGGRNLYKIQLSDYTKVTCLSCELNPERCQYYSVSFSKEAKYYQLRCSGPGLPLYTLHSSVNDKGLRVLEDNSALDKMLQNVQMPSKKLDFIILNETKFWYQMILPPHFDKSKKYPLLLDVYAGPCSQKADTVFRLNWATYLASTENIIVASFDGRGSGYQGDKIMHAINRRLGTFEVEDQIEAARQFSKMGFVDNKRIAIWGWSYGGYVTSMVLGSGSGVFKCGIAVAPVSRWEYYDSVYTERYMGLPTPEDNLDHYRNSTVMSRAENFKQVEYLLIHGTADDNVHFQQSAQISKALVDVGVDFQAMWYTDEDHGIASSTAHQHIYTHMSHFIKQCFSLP

| Substance | Increase in [Ca2+]i (nM) at 10 ng/ml, HOS cells transfected with CD4 and CCR1 [1] [nM] | Increase in [Ca2+]i (nM) at 30 ng/ml, HOS cells transfected with CD4 and CCR1 [1] [nM] | Increase in [Ca2+]i (nM) at 100 ng/ml, HOS cells transfected with CD4 and CCR1 [1] [nM] | Increase in [Ca2+]i (nM) at 300 ng/ml, HOS cells transfected with CD4 and CCR1 [1] [nM] | IC50, inhibition of HIV-1 BaL replication in HOS.CD4.CCR5 cells (p24 Ag ELISA) [2] [nM] | IC50, inhibition of HIV-1 BaL replication in U87.CD4.CCR5 cells (p24 Ag ELISA) [2] [nM] | IC90, inhibition of HIV-1 BaL replication in HOS.CD4.CCR5 cells (p24 Ag ELISA) [2] [nM] | IC90, inhibition of HIV-1 BaL replication in U87.CD4.CCR5 cells (p24 Ag ELISA) [2] [nM] | Increase in [Ca2+]i (nM) at 10 ng/ml, HOS cells transfected with CD4 and CCR5 [2] [nM] | Increase in [Ca2+]i (nM) at 30 ng/ml, HOS cells transfected with CD4 and CCR5 [2] [nM] | Increase in [Ca2+]i (nM) at 100 ng/ml, HOS cells transfected with CD4 and CCR5 [2] [nM] | Increase in [Ca2+]i (nM) at 300 ng/ml, HOS cells transfected with CD4 and CCR5 [2] [nM] | inhibition of the [Ca2+]i rise by a subsequent challenge with intact RANTES (100 ng/ml) after pre-incubation of CCR5-transfected cells with a 3- to 10-fold excess [2] [%] | concentration sufficient to increase [Ca2+]i in HOS cells transfected with CCR3 [3] [ng/mL] | concentration needed to increase [Ca2+]i in HOS cells transfected with CCR3 [3] [ng/mL] | IC50 of RANTES(1-68) against HIV-1 BaL in HOS.CD4.CCR5 cells when sCD26 at 50 U/l is added (p24 Ag ELISA) (RANTES(1-68) (human)) [nM] |
| --- | --- | --- | --- | --- | --- | --- | --- | --- | --- | --- | --- | --- | --- | --- | --- | --- |
| RANTES(1-68) (from UniProt P13501 24-91) (ligand) | < 16 | 25 | 100 | 133 | > 130 | 21 | > 130 | > 130 | < 15 | 24 | 60 | 96 | 75 | 100 |  |  |
| RANTES(3-68) (from UniProt P13501 26-91) (ligand) |  | < 15 | < 15 | 19 | 5.5 | 0.65 | > 130 | 63 | < 15 | 56 | 76 | 119 | 75 |  | > 300 |  |
| soluble CD26 (sCD26) (from UniProt P27487 39-766) (enzyme) |  |  |  |  |  |  |  |  |  |  |  |  |  |  |  | 13 |
